Data published in patent publication US20040014209A1, “Compositions and methods for modulating cell differentiation” (priority 2002, published 2004).

B1: Wnt-1: delivered by Rat-1 cells stably overexpressing Wnt-1 (protein, UniProt P04426 28-370, looked up)
Proto-oncogene Wnt-1: ANSSGRWWGIVNIASSTNLLTDSKSLQLVLEPSLQLLSRKQRRLIRQNPGILHSVSGGLQSAVRECKWQFRNRRWNCPTAPGPHLFGKIVNRGCRETAFIFAITSAGVTHSVARSCSEGSIESCTCDYRRRGPGGPDWHWGGCSDNIDFGRLFGREFVDSGEKGRDLRFLMNLHNNEAGRTTVFSEMRQECKCHGMSGSCTVRTCWMRLPTLRAVGDVLRDRFDGASRVLYGNRGSNRASRAELLRLEPEDPAHKPPSPHDLVYFEKSPNFCTYSGRLGTAGTAGRACNSSSPALDGCELLCCGRGHRTRTQRVTERCNCTFHWCCHVSCRNCTHTRVLHECL

Legend:
SP cells = experiment: FACS of Hoechst 33342 treated quail SP cells; assay type: cell-based; settings: negative control in FACS sorting
Experimental: SP cells were isolated from quail by FACS isolation relying on Hoechst 33342 and propidium iodide to distinguish different cell populations. Cells were incubated in Hoechst 33342 at 37° C. for 60-90 minutes. Cells were then collected by centrifugation, washed in PBS and resuspended in a propidium iodide solution. As a negative control, a fraction of the primary cells were incubated in parallel with verapamil, which blocks Hoechst 33342 efflux. Sorting was performed on a FACS Advantage Plus flow cytometer and fluorescence of Hoechst 33342 and propidium iodide was measured on a linear scale (Goodell et al. (1996) J. Exp. Med. 183:1797; Goodell et al. (1997) Nat. Med. 3:1337 and Gussoni et al. (1999) Nature 401:390). The cells were then pelleted by centrifugation.

[1] = system: presumptive heart field of chick embryos; experiment: Implantation of Wnt-expressing cell pellets into the precardiac region of embryos in New culture; assay type: in vivo; settings: cell pellets implanted at stage 3+ to 4; in situ hybridization
Text: FIG. 15. Overexpression of Wnt genes blocks cardiogenesis in precardiac mesoderm. (A) Whole-mount in situ hybridization for Nkx-2.5 in chick embryos in which pellets of chick embryo dermal fibroblasts infected with either RCAS-mWnt-3a or control RCAS-AP were implanted into the precardiac region of embryos in New culture at stage 3^+ to 4. […] (B) Red line in A indicates the level of this section. […] (C) Ectopic Wnt expression suppresses cardiogenesis in anterior lateral plate mesoderm explants. Stage 5 anterior lateral plate mesoderm from the precardiac region was infected with either control virus (RCAS-GFP, lane 1; RCAS-AP, lane 3), or RCAS-Wnt-3a (lane 2) or RCAS-Wnt-8c (lane 4). Cultures were carried out in the presence of 200 ng/mL BMP-4 overnight followed by 48 h in 20 ng/mL BMP-4. Transcript levels were evaluated by RT-PCR.
As inhibition of Wnt signaling can induce cardiogenesis in the PLP mesoderm, we hypothesized that expression of Wnt signals in the heart field would have the opposite effect. To address this issue, we examined whether ectopic expression of Wnt-3a in the presumptive heart field affects the expression of Nkx-2.5 in vivo. […] However, these in vivo experiments affected all three germ layers. […]

stage 7 chick embryos = experiment: Cell pellet implantation into stage 7 chick embryos in New culture (heart looping, DiI tracing, in situ hybridization); assay type: in vivo; settings: fibroblasts expressing Wnt-1 implanted into one side of heart-forming region, stage 7
APMEE explants = experiment: APMEE explant culture, cardiac gene expression by RT-PCR; assay type: cell-based, chick; settings: stage 9 APMEE explants; RCAS-Wnt-3a infection (n=24) or coculture with Rat-1/Wnt-1-HA cells (n=12)

Molecule	Hoechst 33342 dye retention of SP cells (SP cells)	Nkx-2.5 expression in the presumptive heart field [1]	Nkx-2.5 expression in heart-forming region (stage 7 chick embryos)	APMEE explants in which cardiogenesis was blocked (APMEE explants) [%]
COc1ccc(CCN(C)CCCC(C#N)(c2ccc(OC)c(OC)c2)C(C)C)cc1OC (stereo not shown) [verapamil]	blocks the channel(s) responsible for low dye retention	–	–	–
B1	–	similarly extinguished endogenous Nkx-2.5 expression	blocked subsequent expression of Nkx-2.5	50
